# From PMC12631010, “5‐Thiohistidine N‐Acetyltransferase from Proteiniphilum Saccharofermentans” (Chembiochem, 2025)
# B1: 5THNAT (Proteiniphilum saccharofermentans) (protein)
# chain: MYLVSGSSLFYGWFKKNMDSIKGTVEIYDLDEYNYPKFRGQLIGLYLHAFTTGDYSQHIDRETVEVTLDDILQDGSGCMAFVGNRLVGLLAAFPLKRDPDFPADTCRDIPVGEAIYIAEVMVHADYRGRRIASKMLNTYLQEKSENYSYAVIRVWEKNMPALELYKKLGFLPVATISQQKLSANKEEFVMNKLYLAVKIIDN
# notes: recombinant, produced in Escherichia coli, Ni-NTA purified (tag details not in main text)
# Legend:
# purified protein [1] = substrate: CC(=O)SCCNC(=O)CCNC(=O)[C@H](O)C(C)(C)COP(=O)(O)OP(=O)(O)OC[C@H]1O[C@@H](n2cnc3c(N)ncnc32)[C@H](O)[C@@H]1OP(=O)(O)O; experiment: purified protein; assay type: biochemical, Proteiniphilum saccharofermentans; conditions: 1000 μM 5-thiohistidine; otherwise same
# purified protein [2] = substrate: N[C@@H](Cc1[nH]cnc1S)C(=O)O; experiment: purified protein; assay type: biochemical, Proteiniphilum saccharofermentans; conditions: 500 μM acetyl-CoA, 0.2 μM enzyme; phosphate pH 8.0, 20 mM NaCl, 2 mM TCEP, 26 °C (buffer and temperature from the activity assay); pH 8.0; 26.0 °C
protein,measurement,setting,value
B1,Km,purified protein [1],73 µM
same,Km,purified protein [2],58 µM
